Source: paper PMC11620640
pKd: −log10 of the molar value.

What was measured:
[1] = target: raccoon dog ACE2 (rdACE2), peptidase domain (PD), wild type (raccoon dog) (UniProt B4XEP4); experiment: SPR
[2] = target: raccoon dog ACE2 (rdACE2), peptidase domain (PD), wild type (raccoon dog) (UniProt B4XEP4); experiment: SPR; BIAcore […], 25°C, PBST (0.005% Tween-20 in PBS); […], single-cycle; 1:1 Langmuir model; […]
[3] = target: SARS-CoV-2 Alpha variant spike RBD (UniProt P0DTC2); experiment: SPR

Substance: SARS-CoV-2 Omicron BA.2 spike RBD (from UniProt P0DTC2 319-541) (domain or fragment)
- fold decrease of affinity against PT RBD [1]: > 10 fold

Substance: SARS-CoV-2 Omicron XBB spike RBD (from UniProt P0DTC2 319-541) (domain or fragment)
- fold decrease of affinity against PT RBD [2]: 10 fold

Substance: SARS-CoV-2 PT RBD K417N variant (from UniProt P0DTC2 319-541) (domain or fragment)
- fold decrease of affinity against PT RBD [1]: > 6 fold

Substance: raccoon dog ACE2 (rdACE2), peptidase domain (PD), wild type (from UniProt B4XEP4) E38D
- pKd [3]: 7.91

Substance: raccoon dog ACE2 (rdACE2), peptidase domain (PD), wild type (from UniProt B4XEP4) L24Q
- pKd [3]: 7.37

Substance: raccoon dog ACE2 (rdACE2), peptidase domain (PD), wild type (from UniProt B4XEP4) R353K
- pKd [3]: 7.23
